Source: the supplement of paper PMC9170038

System: MS2 coat protein
Experiment: apparent KD of MS2 coat protein; designed switch direction (-1 OFF switch, 1 ON switch): 1; higher = weaker reporter binding
In short: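 Designed RNA switches were transcribed on Illumina chips by stalled E. coli RNA polymerase and titrated with SNAP-549-labelled MS2 coat protein from 0.7 or 1.5 nM, doubling to 3 µM. Step length ran from 0.8–1.5 h at the lowest concentration to 10–20 min at the highest. The apparent KD is the median over clusters for each design, from curve-fitted normalised cluster fluorescence.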

[1] = Eterna round: R95, input ligand: FMN 200 uM
[2] = Eterna round: R95, input ligand: microRNA oligo, concentration not stated
[3] = Eterna round: R95, input ligand: none
[4] = input ligand: microRNA oligo, concentration not stated

Sequence	apparent KD of MS2 coat protein [1] [nM]	apparent KD of MS2 coat protein [2] [nM]	apparent KD of MS2 coat protein [3] [nM]	apparent KD of MS2 coat protein (input ligand: FMN 200 uM) [nM]	apparent KD of MS2 coat protein [4] [nM]	apparent KD of MS2 coat protein (input ligand: none) [nM]
UGCUAUAGUAUAUUGGUGCAAGCUUUUUGACAUGAGGAUCACCCAUGUACUCGUCUUAAGCGCAGUCCGUAGACUGC (puzzle: Sensor for hsa-mir-208a)	84.5	13.8	89.9	–	–	–
UGCUAUUGUAUAUUGGUGCAAGCUUAUUGACAUGAGGAUCACCCAUGUACUCGUCUUAUGUGCAGUCCGUAGACUGC [JL-shm-2.25 Brourd mod] (puzzle: Sensor for hsa-mir-208a)	72	13.9	78.7	–	–	–
UGCUUCGUGUAAGGAUAUGCAGCCGUUUCGGCUGCAGAAGGUACUAUAAUACAUGAGGAUCACCCAUGUCUCUCGCAUUGCGGG [salish99_SSng1_r04_303] (Eterna round: R96, puzzle: Same State NG 1)	–	–	–	37.5	40.3	52.2
UGGAUCUAGGCUUGCCUGGGUCCAUGCUGACAUGAGGAUCACCCAUGUGCAUUCUAUAAGCUUUUUGUUUGUCAGCU (puzzle: Sensor for hsa-mir-208a)	360	25.1	411	–	–	–
UGGCCAGCCUGUGCUGGGCUUUUGCAUGUACAUGAGGAUCACCCAUGUCGUGUUCAUGCUUUUUGCUCGUCUUUAAA [Photon Torp-03] (puzzle: Sensor for hsa-mir-208a)	49.5	16.3	55.8	–	–	–
UGGCUCAGACGAGGAUAUGAUCAUGGCGCUUCGGCGCAUACAUGAGGAUCACCCAUGUAGGGUGAUCAGAAGGUGUCUGAGCCA [SSNG2/8-B2] (Eterna round: R96, puzzle: Same State NG 2)	–	–	–	90.9	578	1000
UGGCUCAGAGCAGGAUAUAUGUAAUAACAUGAGGAUCACCCAUGUGUCGAGCUUCGGCUCGACACAUAGAAGGGCUCUGAGCCA [SSNG2/2-B2] (Eterna round: R96, puzzle: Same State NG 2)	–	–	–	13.3	29.2	40.9
UGGCUGAGUCGAGGAUAUGAUCUUCAUAUAUAUACAUGAGGAUCACCCAUGUAUAAUUACAUGGAUCAGAAGGCGACUCAGCCU [SSNG2/13-A2] (Eterna round: R96, puzzle: Same State NG 2)	–	–	–	–	23	–
UGGCUGGUGCUAGGAUAUACAUGAGGAAUCCUCGUAGAAGGAGCACGACAUGAGGAUCACCCAUGUAGCCGUCCGUAGACGGCU [salish99_SSNG1_r04_007] (Eterna round: R96, puzzle: Same State NG 1)	–	–	–	284	156	112
UGGUACAUGGGAGGAUAUGGAGUGAAGACAUGAGGAUCACCCAUGUUAUAAAAGCCGAGAGGCAACUAGAAGGCCCAUGUACCU [JL SSNG1 3.93] (Eterna round: R96, puzzle: Same State NG 2)	–	–	–	14.3	37	55
UGGUACAUGGGAGGAUAUGGAGUGAUGACAUGAGGAUCACCCAUGUUAUAUAUGCCGAGAGGCAACUAGAAGGCCCAUGUACCU [JL SSNG1 3.97] (Eterna round: R96, puzzle: Same State NG 2)	–	–	–	19.4	121	137
UGGUACAUGGGAGGAUAUGGAGUGAUGACAUGAGGAUCACCCAUGUUAUUUAUGCCGAGAGGCAACUAGAAGGCCCAUGUACCU [JL SSNG1 3.96] (Eterna round: R96, puzzle: Same State NG 2)	–	–	–	16.7	40.8	52
UGGUCUCACUUAGGAUAUUAGCACCGAAAGAGCUAAGAAGGAGGUGAAACUCUCACAUGAGGAUCACCCAUGUACACCCUAGGG [Eternabot solution 3] (Eterna round: R96, puzzle: Same State NG 1)	–	–	–	162	503	1080
UGUACCUUCAUAGGAUAUCAUGCGAAAAUUGCGUGAGAAGGGUGAAUACUGUCUUUCUAAGAGUACAUGAGGAUCACCCAUGUA [SameState NG1 #62] (Eterna round: R96, puzzle: Same State NG 1)	–	–	–	181	133	152
UGUCCAGCCUGAGCUGGACAAAAGCAUGUACAUGAGGAUCACCCAUGUUCAUGUACAAGCUUUUUGCUCGUCUUAAG [salish99_208a_r3_032] (puzzle: Sensor for hsa-mir-208a)	547	13.9	533	–	–	–
UGUCCAGCCUGAGCUGGACAAAAGCAUGUACAUGAGGAUCACCCAUGUUCAUGUACAAGCUUUUUGCUCGUCUUAUC [salish99_208a_r3_057] (puzzle: Sensor for hsa-mir-208a)	401	13.2	526	–	–	–

Sequence	apparent KD of MS2 coat protein [1] [nM]	apparent KD of MS2 coat protein [2] [nM]	apparent KD of MS2 coat protein [3] [nM]	apparent KD of MS2 coat protein (input ligand: FMN 200 uM) [nM]	apparent KD of MS2 coat protein [4] [nM]	apparent KD of MS2 coat protein (input ligand: none) [nM]
UGUCGUUGCAGAGGAUAUGGGAACUCGAUGCCGUAAGGUAUCAUAACAUGAGGAUCACCCAUGUCCCAGAAGGCUGCAGCAAGC [Leatve Mod] (Eterna round: R96, puzzle: Same State NG 2)	–	–	–	29.7	94	235
UGUUAACAUGAGGAUCACCCAUGUCAAAAGAAUCGAGGAUAUGGUAAGUAAUAAGAGAAUCUAGAAGGCGAAGUUG [Altered State 1-24 - Jieux - Same State 1] (puzzle: Same State 1)	42.7	55.9	60.9	–	–	–
UGUUAACAUGAGGAUCACCCAUGUCAAAUGAAUCGAGGAUAUGGGAAGUAAUAAGAUAAACUAGAAGGCGAAGUUG [Altered State 1-1 - Jieux - Same State 1] (puzzle: Same State 1)	358	106	195	–	–	–
UGUUAACAUGAGGAUCACCCAUGUCAAAUGAAUGAAGGAUAUGGAAAGUAAUAAGAUGAACUAGAAGGUCAAGAUG [Altered State 1-22 - Jieux - Same State 1] (puzzle: Same State 1)	48.4	51.9	49.8	–	–	–
UGUUGUAUUACAGGAUAUCUAGUAAUUUUAUUUAGAGAAGGGUAUUCACAUGAGGAUCACCCAUGUAUAUACGAGGAAGUUGUG [JMF's solution 35] (Eterna round: R96, puzzle: Same State NG 1)	–	–	–	–	27.8	–
UGUUGUAUUACAGGAUAUCUAUGAUUGUUAUUUAGAGAAGGGUAUUCACAUGAGGAUCACCCAUGUAUAUACGAGGAAGUUGUG [JMF's solution 60] (Eterna round: R96, puzzle: Same State NG 1)	–	–	–	52.3	36.7	50.6
UGUUGUAUUACAGGAUAUCUAUGAUUUUUAUAUAGAGAAGGGUAUUCACAUGAGGAUCACCCAUGUAUAUACGAGGAAGUUGUG [JMF's solution 68] (Eterna round: R96, puzzle: Same State NG 1)	–	–	–	–	39.6	–
UGUUGUAUUACAGGAUAUCUAUUGUUUUGAUUUAGAGAAGGGUAUUCACAUGAGGAUCACCCAUGUAUAUACGAGGAAGUUGUG [JMF's solution 77] (Eterna round: R96, puzzle: Same State NG 1)	–	–	–	64.1	40.3	50.6
UGUUGUAUUACAGGAUAUCUAUUGUUUUUAAUUAGAGAAGGGUAUUCACAUGAGGAUCACCCAUGUAUAUACGAGGAAGUUGUG [JMF's solution 81] (Eterna round: R96, puzzle: Same State NG 1)	–	–	–	–	37.6	–
UGUUUGUUGUGAGGAUAUACAUACACCUUACAUGAGGAUCACCCAUGUUGUAAUUUUGAUAGUUAGUAGAAGGCACUUGGUUAU [JR_SSNG2_Sub045] (Eterna round: R96, puzzle: Same State NG 2)	–	–	–	35.2	64.3	71.5
UGUUUGUUGUGAGGAUAUACAUACACCUUACAUGAGGAUCACCCAUGUUGUUACUUUGAUAGUUAGUAGAAGGCACUUGGUUAU [JR_SSNG2_Sub047] (Eterna round: R96, puzzle: Same State NG 2)	–	–	–	94.9	91.6	140
UUAAAGAAUUAAGGAUAUUGAAUACAUAUGUUUAACAUGAGGAUCACCCAUGUGGGUUGCGGUAUCGAGAAGGUAAAAUAAUAG [Mat - Same State NG 2 - JL mod - D5] (Eterna round: R96, puzzle: Same State NG 2)	–	–	–	108	106	118
UUAAUGAAGUAAGGAUAUACAUGAGGAUUUCUCGUAGAAGGUACUAUACAUGAGGAUCACCCAUGUGCCGGUCAGAAGACUGGA [Mat - Same State NG 1 - JL mod - D10] (Eterna round: R96, puzzle: Same State NG 1)	–	–	–	–	301	–
UUAAUGAUGAUAGGAUAUACAUGAGGAAUUCUCGUAGAAGGAUCAUGACAUGAGGAUCACCCAUGUAUCGCUCCGUAGAGCGUA [JL SSNG1 1.14] (Eterna round: R96, puzzle: Same State NG 1)	–	–	–	934	233	676
UUAAUGAUGUAAGGAUAUACAUGAGGAUUUCUCGUAGAAGGUACAAGACAUGAGGAUCACCCAUGUGUCGCUCCGUAGAGCGUA [JL SSNG1 1.09] (Eterna round: R96, puzzle: Same State NG 1)	–	–	–	–	132	–
